Results from the domain aggregation screens of Martell et al. (2025).

Assay: soluble fraction after stress (log2 fold change); higher = more stays soluble; pooled small domains, quantitative proteomics
Conditions: stress: 75 degC
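Also: 20 min heating vs room temperature control held 20 min.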

Row | Sequence | soluble fraction (log2)
1 | HMNATPDMERYWASSAAEGRALEPLYAVSRGDGGEPLWWSPSRAQAERMAREEGGPLTVDRIDPP | 0.113
2 | HMNAVYAEERRAYILAALEKRGTVHSYELAEQMGVSRETIRRDIMELSNRGLLVKTHGGAIST | -1.45
3 | HMNAYEVLIPNIYIGQRVDQTLASLFPQFSRSRLQNWLARGNLLIDGEIIKPKTKVLGGEQIIILDT | -1.72
4 | HMNDAEEKAEAIEGVKNFMANMEKTDIDFKSKESVLLEQVEEIRKNYPVAQWPVIVKQLYNNIGRL | -0.0997
5 | HMNDIDKFVAALVDQDTMAGTNRAFDENDIQTMKNMSSIEDVKQYAVANGLSSGKVNNALISAGL | 0.234
6 | HMNDIQIILQEAVARLPKKQQLVFNMKYFDHLKYQEISEILGTSVGGLKASYFQAVKKIENYIINKH | -2.27
7 | HMNDRLFQILYLLLEKGTMTAPELSRALEVSVRTIYRDIDALSLAGVPVYATQGKNGGVSLLPNY | -2.46
8 | HMNDTLQEYFEALERLKSNNPINVPKNTKINNDSVALEAGRKRGSIKKSREIFAELIEAINNAS | -0.303
9 | HMNDVEAIDDALKDLHKVSPDLAALVEMKFFGGMTEPEISEILGVSERTVRREWEKARAALLVLLE | -1.63
10 | HMNDVHELPYSSFIEMVERGHVISVTVKHINIEFESTKNENYRTIAPQAMTPPYLELLLKNKDSVKVTFLP | -1.98
11 | HMNDVLVGAIPESASGSRLDKVMPSVFPPYSRSQLQVWLKQGRILMGNGIPSPRLIVSGGEVLSLVVPELP | -1.02
12 | HMNEDFSEIIAAVKKFAVDNLSLSTLSDEELEEQIKTITDNMIGNRYVSIKNRVDIAQQVFSSIR | -0.291
13 | HMNEMEFAQRLRQFRKAKNLTQQELADRLGVSNKSVSRWESGSYPDVGTLVALARALGVTVDELLDPKA | -0.00291
14 | HMNEMEWVAKLIDQLPERERMILQLREIEQYEFDQIASLMEIPEGTVRVYLSRIRKKIKKQFIEIQSH | 0.0404
15 | HMNENFPYRLKEMVVVQSRTWPGINKPGGVGQVMKINPEAGTVNVKYVLGGSEKNIELKYVTSNDLNSK | -0.489
16 | HMNENYNLSKREKEVLDLLVNGKSYKVIATELAISYETVHSHIKKIYHKLHVSSIGEAVSKTIKQKIL | -3.11
17 | HMNEPITIALREAEEAANKILNEGVHSVELSPQNGYVRRLQHELIARYGLTSASRGSDPSRRVSVGAN | -0.295
18 | HMNEQKVSSLLTPRQLAFIDEYLIDFNGAQAAIRAGYSHKTAGPQAARLLVNVNISRMIAERIEARNK | -2.5
19 | HMNEQVAVVSGSQVNVRSGPGTTSAVVGQVSKGDNLPVLNQSGDWYQIKLPGGNAGWVAGWLVSLRPTT | 0.0105
20 | HMNESPVLAVLTPTERKVASLVAEGLTNQAIAARMILAEGTVKNHVSTLLHKLQAPDRTALALTLYKAFQ | -1.3
21 | HMNETRVDQAADLLLALLEKEPKSAAEILDEFEQAGFSKSGLYRAKDALGVVSIRKEGRWVWSLPHSLD | 0.438
22 | HMNEYIVSAEQEGMRLDVFLTEQMEGSRSYIQSLIKGGHVTVGDKVGKANLRLTPDTVIHVEIPEPE | 0.0133
23 | HMNEYLPEAVQKLLEVMEYDIPYTSNELMERLGLKAKEGFRRNYLHPAMEMKLIQMTIPDKPNSRNQRYLR | -2.13
24 | HMNFHLEHHIAELLYRSIRGELSDFERQELNQWRSDSPMHETLFMRLQDDEYIDEELGVFIK | -2.76
25 | HMNFKNMIDSLSGILFKKDPSAAIIDIGGVRLKVFITVGSYEQLPAKGEQVEILTYLHVKEDILNLYG | -1.85
26 | HMNFMDGFQSFFQESGAMNRPMTADVVSYRLPDGTVQQGNSTMRGLMDQYLKSIGQSPTTGVP | 0.0171

Row | Sequence | soluble fraction (log2)
27 | HMNFRESVLAVFENSKQKYLDFDEIAKRLGLTRGFDRQALASMLNELTRNDEIVFTKRNKYTLPEN | -0.524
28 | HMNGAVAEQARKQLMAALKASEFIAEEKLDEWLDALALPEDKRTAIVDAVDELDYEEAISELEN | 0.429
29 | HMNGDYFEYRYAVNGSRSTPPSLSKTSRNPSGWSTTVPTVGNLQYLWFTVAKINGETNSLIQNWSTPARQT | -1.88
30 | HMNGEAQTMYVTARTLNVRKGPGTSYAKAGTLSRGTAVQVVGFSGNWAKLSNGYYVSTSYLAKI | -4.25
31 | HMNGKWKLRIIKELLHSNIRFGQILKNIPDISPKVLSQQLKEMEEDGIIERIVISEMPPNVEYVLTDMGE | -1.66
32 | HMNGLNISYRMDGENVVETIVFPDATMIRTIAPNGVMTIKTIEDGSVSTSELKADYKLYKKIYESQY | -0.748
33 | HMNGSVLVTGGSVWIRAGASKETDGLGIVHKGDVLKRSGSDASGWRGVVYEGQNAFISAKYSSI | -0.89
34 | HMNGTEAIRRYIDQFASKHATTPRMLKLNERKQLIQELKNNGLLEIKKAVETVAQHLGISRASAYLYVKE | -1.52
35 | HMNGVPDMSPVPEGARNSTLHAWAFGRLKNHPDNETGIREDLFRRGHASGLQDAELDQIWKSIKRTL | 0.00545
36 | HMNGVSNETLIQKSALYEELNQPDLALKMINTALKKDSVNIEILHRLVTLLMSQEKNEEAILYNQKIIDH | 0.0902
37 | HMNHSITLTERKNLLITGVKKIENFDKEEFLIETTMGFLVVKGDGLELIKLDTISGNVSIKGIVNGFTYID | 0.15
38 | HMNIAAVIGQTGVLQDDLKAGEQGTVKADNKLWTAVLAEGEEAVKKEERVDIVAVEGVKLIVRRNI | 0.663
39 | HMNIDEIFLTKNEIYFSFEYQKKSQLDRYSKIISLDHRIDKNTAYAYANKKQFLNFINLNIDYKIIDNSF | -2.87
40 | HMNIDEIIGKKAVVIESIDNLQGTGKVRYQGMEWTARAEEENDRIEKDAEVEIIAVKGVKLIVKMK | -0.384
41 | HMNIDNTWQPSEDVVEILTRSGINEDFINELIPEFIVYWTERPGTLVSYNSKFIEHVRLKWAQHSAEI | -0.375
42 | HMNIDVAAEKQQLGPNADQIVKGTVTWMQGLVAKGIWSETDFEEGKIFTATADGINAINKIRRYYGEQT | 0.0956
43 | HMNIEDFKDKVKELKQYTYQELVEDVKLKTDRADVILPASKIYLEAMQQAKVDSIIVPKVGLAEGVAR | -0.012
44 | HMNIEEQVVAEVLVKDFMKQLTPRDIHILELRKNGYTYQEIAGQLGYHTHSAVKKRVDRLAEQWLAYTQGH | -2.26
45 | HMNIFAHQIGKLRTERHLSQTDVAKRLYVSRQAVSKWENGDAEPSLDNLIALAKLFNVSLDNLITGQ | -1.78
46 | HMNIGVEQIEQMERGALITLWQELIDKPLPRHMSIVFLRQVLAFEVQSKQNGGLPRGFITLLNKQAD | -0.826
47 | HMNIKITKSKNSEHYSIIYNTKINGKRTSKIYENIGNFEKLKLRAGEQEPIEWLKNYVSELNKKQKEDT | 0.11
48 | HMNIKYDFPTNSPLEMMRNLFDSNSQIINDLKDGFAMANSLNEQGLANFFAERIDKHQFWSWQLSASL | -0.201
49 | HMNILDPTVMKNILDKNHEEFIAIYESAPLGQKTIINSMVFDKRLNGENVDANILMYLQNKTNIDYINIEP | -0.536
50 | HMNILNYIIENENQEVRVDKFLSDTIEDMSRSSVASIIEDGGLLVNDKLQNKKYKLKIGDKVQFTVPDPV | 0.0982
51 | HMNILVAISDTGEIWINKRRVDARAVQANIERLHAENPQGTVVIQADKQATTETLIKVMDASRAAGVFDVS | -0.691
52 | HMNINLDINTYTVKELEKLLKLEVPYSDNNVFEKKNLMVKMIQTSTIAETKKEELYIFLDNIYNRLTNNLE | -1.59

Row | Sequence | soluble fraction (log2)
53 | HMNISLGALVTITDQKGRSHTVTLESGKQFFTNHGSINHDEIIKAGEGGVVASSSGMLYTIFTP | -0.924
54 | HMNISRESLIGQILATLNKNPEEGFNYKQIAKRLNITDSPGRQMISDLLRELSKHGSLQEISHGKYKIKV | -0.237
55 | HMNITHEINVKSKSKIDFLENNKNLAQFFLTKNPNQFNYNLVFSDKSELNIIKEKIESHKDIEDIDIRYG | -0.0863
56 | HMNIVINVDTPTFEQMKATYQAPGTLPAGASFHAKLKGVTVTGYTKSHKVMFQGALANQEAARWQ | -1.88
57 | HMNIYFNIEDAVANAVVENGKMSAAIYEKNVDTGEVAKLAEVSMPVMGGNINITKTLLTKALISQLP | -0.71
58 | HMNKAYLTVADMKKDKSLKNGDVVRTLGYYGYNDGDGAVYQIKDSHPEDYHIRLDNGLDAEQINY | 0.185
59 | HMNKEHINLDSSKFLSLLNKTKISMSNDETRHYLNGIYIHPTVSNKSSYLTGVATDSHRLSSSSIPVD | -0.366
60 | HMNKMIIELGEKLKALRTENHLRQDQVARLVNVEKSSISMYETGMRQPSYTTLVRLADVFNVTTDYLLGRK | -2.37
61 | HMNKPTSMYKLRLLLKHYHAGASKRWMADVLDISRSTLNVYLARIESLNLAFEEWEALSDLEVSRLLINP | -3.22
62 | HMNKVAQFYRELVSTLSERLRNGERDIDALVEQARVRISQSGELTQSEIENVIRAVRRDLEEFALSYEE | -0.0274
63 | HMNLAISAYQQLKSDIIRGVYAPGEKLLMSRLKVRYGLGIGPMREALSQLVSEHLVTAASQRGYRVAGM | -1.79
64 | HMNLAPLLTEYVQINFRRASEMKTYLEQANLISERGFLLADDQTNILMVRETGASIEEIRRTLNRF | -1.92
65 | HMNLFKAPMPGLIRTIVVAEGQEVKKGDVILILEAMKMENALKSPADLVVKSIKVQQGQAVEKNQLLIEF | -2.44
66 | HMNLGNLLKIYRKNSLLTQQQVADALNINRTTYTYYETGKTEPSIDTLHKLIKIFGITYDDLL | -2.88
67 | HMNLKDINLNVRHYKIIDFVREHGYASIETLTRQFGVSAQTVRRDIIYLDNQAVLKRHHGGVGTLPG | -1.97
68 | HMNLPTSGVDALTPAERRVARMAGDGQSNREIAQTLFVTRKTVEIHLTSVYRKLGIASRAELSARL | -2.68
69 | HMNLQGIISQKAIVTQTIEPYETGVAKLNGEEWTAMSKDETRIEAGKLVEVVAIEGVKLIVKEVS | -0.311
70 | HMNLVELKHAEEFNTLIIQDIGGRMKPAHTLASELVRKVFHNDDFNGIDPRKVFLSIIENSKVWFNVPFI | 0.0116
71 | HMNLYENLATHVKNAIRQGVYQPGDRLPSVRRLSEQHRVSQNTAVSAYRLLESHGWLEARPQSGFFARHP | -1.42
72 | HMNLYERFPIHELWKETFNETLDEEEHITFITSEFKPENIVLGQGFIAAPSKKDAVDWLKVIRTVLIFYDS | -2.37
73 | HMNMANFARIRLILELHDRGMSQDEISRSRHMSRSTITTVLRTARKKGITYAGIRKLDDAALQKLFFPDR | -4.02
74 | HMNMDLGHSISKLRTDANLTQEKFAQILNVSRQTVQKWEYGEALPDIHNIIKIAKFFNISLDALVLRS | -3.02
75 | HMNMIGDVIRNLRTVSSMTQTELGQRMGVIKQTISNWEKNISTPSIDAIVKLSSIFNVPTDYLL | -1.22
76 | HMNMMESNLFAVYDNDDIVKTLRQGAMEIDSLIRLMGKSSAEVLEKLTTMELQGIITRSGNIIALNN | -0.427
